We go through 19 sequences from a protein production outcome set (Wang et al. 2014).

The series in a line: label from the status in PepcDB records.

For the sequence “MGSLGFLAGGVMPLEQLKQELSEVKGVFGVNLFRPQTDAPKPSDIDELAGLLSSAFRQFGLDEPTVPTPDLSNGWEAKFEAVLAAKPAVFSCTFGIFSAEEFARIKATGIEAWVTVTNPEDALAAQKAGANALVVQGPEAGGHRSTWSIEVEPDERDLKTLLAAVKQAGVYLPLIAAGGLSTSADVAAILEAGASAASCGSAFLLSDEAGTSSLNREILDAAPALGLESVSSRAFSGRYARGVETRFTRSNEGLPPLYPYLNPMITSLRKVAGSAGNWDYAYCLVGVGLESIAKGSAKQILESLTPSALEHHHHHH”, the protein production entry is given as “failed”.

As for “MGSPASASHEALRHILDAGASMGSLQGLDEAQQQALYAIAHGAYEQGRYADALKMFCLLVACDPLEARYLLALAAAAQELGLYEHALQQYAAAAALQLDSPRPLLHGAECLYALGRRRDALDTLDMVLELCGSPEHAALRERAESLRRSYARALEHHHHHH”, the protein production result was “failed”. “MGSPNSLSRRGFCLCCVGGATFAASAGWLTPREAYAEARGLVSLIKDSAAISPITASRLRNNISVLEGSGGNIAVLTGSDGKLLVDAGIRVSRAQLTNALAGLGTDPVTHLVNTHWHFDHADGNEWLHSAGAKIIAHENTRKHLLGVQRVEDWDYNFLPLGPGGIPSEVFAGSHKLGLNGASISLKYFGPAHTDSDVSVTFVEANIVHVGDTFWNGIYPFIDYSTGGSIDGMIAACDANLAATDKDTIIIPGHGKPVSNKAELQAFRDMLVAIRDNVARLKAQGRTWDETVAAKPTAAFDAQWGQFVIDPGFFTRLVYQGV”: the protein production entry is “failed”.

Consider “MGSRDLISSLPDEILGKVLSLLPTKRAASTAVLSKRWNNLPALVDKLDINDAIGGPGGFPEFIDKTLALLTNSTTIKRTSLNNEFQYGESQVNTWIRSFLERGCLQLYLNAQSLYTIDTEFFTSNTLVELTITGGFSPDGLLPPGGVFFPKLKTLSLVLMTFVDSDMYELFISGCPLLEEFLLRNDEIEIPPVWNALVSSPSIKRLTIVHHFPNYREAHDGCWFRTPNLVYLDYSSYVPDWYEVDLGSLVEARLDLRSWERLRDEKAGGYGDCDSVYDDEEYPDDPILGDVTNLVTGLSNIKTLHLSPDSLEVSFPYLLLFQFEVHSSLQSLLIV”, for which the protein production result is on record as “failed”. As to “MGSRTHARKDASSEALQAPRLRTLLLTDLCDSTALVERIGDNAAAALFREHDRLVVKLQQHWRGRLIDRSDGLLLLFDRPIDGLGFALDYARGLKTMGDAHALTLCARQGLHVGEVLTWRNSDEAISIGAKPLEVEGLAKPTAARLMSMARPGQILLSAVAESLTHRAARELGNRADRLLWKSHGRWRFKGMPTPMEIYEVGEVGLTPLRMPKNSAKAWRDVPLWRRPAALVAEVGVVLAVGIAAWFFIRPQPAIAFASRDWVVVGDVRNLTGNTVLDGALEQALRISLEQSRYVNVLSDMKVRDTVTRMKRDPNTIVLDRSVASEVALRDGASAVLLPTVAEVGGKLRFSVELVDPRTQTTVYSEFVQGDGLPSALSSVDQVTRKLRQGLGEMVASIDKNSVPLPAVTTSSLDALRAYALGVEATAKGRWREGLELFDRAVGIDPTFALAYLGAARIKVAVSDRNGALPYLDNAVRFRQRLPARDQLYLDAWIAELRAVDTALPLWRTLASLYPDNFAGAANTSWHLFVANRFADALPYAQAADVVQDPLRSIASDRIGRILMAQGKVEAALQRFENSSDGDRAGPLRRQADALAVLGRYAEEQRTLDRIVDNGYANDDVVPLIDRTSIALDQANWANANAAVAQALERSKHTDDFSYRQFLVIGATTAAITGETASVGPGMSSTFEALVGAIKANGPAEPNLQDDAAMVLSLVSQAQRNGDDQFTARALSAIKPALAHETPVLADLRAIVEAQHLALSGDRVAAIARLPPGPDDLLQMRVTLYTLLHDSGRHAEALQQARWLSLQRGRAYIEANASQTLQPLNVAHTRLARLWTAESLYALGRTQEAREQAQAFVRAWPASHLPAYLRSRVERILSDSKAKITV”, the protein production entry is “failed”.

Regarding “MGSSHHHHHHENLYFQGTSVMITENQSVNAKGKYEKMNRLYDTNKLHQYYSGPSYELTNVSGQSQGYYDSNVLLFNQQNQKFQVFLLGKDENKYKEKTHGLDVFAVPELVDLDGRIFSVSGVTKKNVKSIFESLRTPNLLVKKIDDKDGFSIDEFFFIQKEEVSLKELDFKIRKLLIKKYKLYEGSADKGRIVINMKDENKYEIDLSDKLDFERMADVINSEQIKNIEVNLK”, the protein production entry is listed as “not failed”.

For the sequence “MGSSHHHHHHSSGLVIRGSHMRIALMQHTARPLDPQHNLDLIDDAAARASEQGAQLLLTPELFGFGYVPSQICAQVSAEQVDAARSRLRGIARDRGIALVWSLPGPEGPEQRGITAELADEHGEVLASYQKVQLYGPEEKAAFVPGEQPPPVLSWGGRQLSLLVCYDVEFPEMVRAAAARGAQLVLVPTALAGDETSVPGILLPARAVENGITLAYANHCGPEGGLVFDGGSVVVGPAGQPLGELGVEPGLLVVDLPDQSQDAGSDSADYLQDRRAELHRNWL”, the protein production entry is listed as “not failed”. The same measure for “MGSSHHHHHHSSGRENLYFQGHMAATAREDGASGQERGQRGCEHYDRGCLLKAPCCDKLYTCRLCHDNNEDHQLDRFKVKEVQCINCEKIQHAQQTCEECSTLFGEYYCDICHLFDKDKKQYHCENCGICRIGPKEDFFHCLKCNLCLAMNLQGRHKCI”: “not failed”; for “MGSTRKGMLNVLIAAVLWGSSGVCAQYIMEQSQMSSQFLTMTRLIFAGLILLTLSFVHGDKIFSIINNHKDAISLLIFSVVGALTVQLTFLLTIEKSNAATATVLQFLSPTIIVAWFSLVRKSRPGILVFCAILTSLVGTFLLVTHGNPTSLSISPAALFWGIASAFAAAFYTTYPSTLIARYGTLPVVGWSMLIGGLILLPFYARQGTNFVVNGSLILAFFYLVVIGTSLTFSLYLKGAQLIGGPKASILSCAEPLSSALLSLLLLGITFTLPDWLGTLLILSSVILISMDSRRRARKINRPARHK”: “failed”. Under “MGSVPMGHKRISFHIVQTTRSGDRSASRTSVEEASDQGPSPWTTADSAIFQLRWSCVWRRAVSTSANIEDGADAAFVASPPPFGAGVADLYQALLVPILFEPYALEMAIVAERSKPVSVLEVAAGTGALTRALRAKLDPAAEIVATDLSQAMIDVGAPSVTMSRTHWMHADAQDLPFAPLMFDLVVCQFGVMFFPDKPKAYHEAKRVLRSGGRLLFSTWDSLAANDFARCVDECLTGLFPSDPPDFLGRLPYSYFDPSLIKAEVSSAGFKAVSCERLELASIAATSQDVATAFCRGTPLSGEIEWRAPERMSEIVDEVAERVASRYGARPCGSMSALVVSGRAP” stands “failed”; under “MGSVSNQQFAGGCAKAAEEAPEEAPEDAARAADEPQLLHGAGICKWFNVRMGFGFLSMTARAGVALDPPVDVFVHQSKLHMEGFRSLKEGEAVEFTFKKSAKGLESIRVTGPGGVFCIGSERRPKGKSMQKRRSKGDRCYNCGGLDHHAKECKLPPQPKKCHFCQSISHMVASCPLKAQQGPSAQGKPTYFREEEEEIHSPTLLPEAQN”, “failed”.

In the case of “MGSVSTGNAGSGTVGTSTTSRADVMTFQPSSLPVSYVGETYNVQVGVTGGVGPYGYRLTAGTLPPGLKFAGGALSGTPTKAGSYSFAIQATDANLSTRVQEYTMNVDALPPLALKPTLPPGEIRGETRIPVTIQAPRAVRAARLSWDLGKDVQVTRVQPADAGSVVFWQQRGSVLTVDLGFRTVPRPDARIALITVKPAKAVTLKADALGYEARDGSGKMLVDKKRPGSEPVKPAEQPGDPKVDPKAADQKATDQKATDPKTVDPKTVTPADTVEGGPLPSPALPTPSLPPTLPPVTTPPANTPPVPTPTPPANQPAPAPAPQPAPAPQPTPPSGTGGALEHHHHHH”, the protein production result is on record as “failed”. The same measure for “MGTALVYHEDMTATRLLWDDPECEIECPERLTAALDGLRQRGLEERCLCLSACEASEEELGLVHSPEYIALVQKTQTLDKEELHALSKQYDAVYFHPDTFHCARLAAGAALQLVDAVLTGAVHNGLALVRPPGHHSQRAAANGFCVFNNVALAAKHAKQKYGLQRILIVDWDVHHGQGIQYIFNDDPSVLYFSWHRYEHGSFWPFLPESDADAVGQGQGQGFTVNLPWNQVGMGNADYLAAFLHVLLPLAFEFDPELVLVSAGFDSAIGDPEGQMQATPECFAHLTQLLQVLAGGRICAVLEGGYHLESLAQSVCMMVQTLLGDPTPPLLGLMVPCQSALESIQSVQTAQTPYWTSLQQNVAPVLSSSTHSPEERSLRLLGESPTCAVAEDSLSPLLDQLCLRPAPPICTAVASTVPGAALCLPPGVLHQEGSVLREETEAWARLHKSRFQDEDLATLGKILCLLDGIMDGQIRNAIATTTALATAATLDVLIQRCLARRAQRVLCVALGQLDRPLDLADDGRILWLNIRGKDAAIQSMFHFSTPLPQTTGGFLSLILGLVLPLAYGFQPDMVLMALGPAHGLQNAQAALLAAMLRSPVGGRILAVVEEESIRLLARSLAQALHGETPPSLGPFSKATPEEIQALMFLKARLEARWKLLQVAAPPP”: “failed”; for “MGTARTLTAAGGEPAFRGNDRLLLGIILGVLTFWLFAQTTLNIAPDMRRDLGTGESLMNIAVALTALFSGIFIVVMGGLADRVGRVRMVRLGFLASIAGSLLVGLAPAGGLAVAFLLAGRALQGLSGACIMPASLALVKAYWDGAERQRAISLWSIGSWGGSGVCSLFGGLVTQHLGWRWIFFASVLVAIAGLLLLRGTPESRAEGGAADYRFDLAGVLTFMVAMVALQVVVTQGNQLGWTSPASLGLVAATIVFGWLFLRIERRARSPFIDFGLFRSPTYTGATISNFLLNGVAGTLIVSLQLVQVGGGMSAQRAGVLTLGYAVAIIAFIRVGEKLLRRFGARRPMLWGCAITGASILLLAPSNVMLARYEVMAVIGYTLFGVGLAFYATPSTDAALSNLPASQAGAGSGLYKMASSLGAAFGVAISAAIFTALRAAPQSVSWLEGVITFQGRQDNLAVREAAIIALGFNELMVVVAIVSIVLTIPEGERRQGA”: “failed”. The same measure for “MGTLGRAIYTVGNWIRGTGQALDRVGSLLQGSHRIEEHLSRHRTLMNVFDKSPLVDKDVFVAPSASVIGDVQIGKGSSIWYGCVLRGDVNNISVGSGTNIQDNTLVHVAKTNISGKVLPTLIGDNVTVGHSAVIHGCTVEDDAFVGMGATLLDGVVVEKHAMVAAGSLVKQNTRIPSGEVWGGNPAKFMRKLTDEEIVYISQSAKNYINLAQIHASENSKSFEQIEVERALRKKYARKDEDYDSMLGITRETPPELILPDNVLPGGKPVAKVPSTQYF”: “failed”. The same measure for “MGTSKYSPEFRADAVALYHASPGGTYASVAKDLGVNHETLRTWVRDAEQAGRPGAVEATAMDKENRQLRARVKELELEREILRRAAKYFAAETSWLEHHHHHH”: “not failed”. For “MGTSSDPIQDGSDEQQKRSEIYTYEAPWHIYAMNWSVRRDKKYRLAITSLLEQYPNRVEIVQLDESNGEIRSDPNLSFEHPYPPTKTIFIPDKECQRPDLLATSSDFLRLWRIADDHSRVELKSCLNSNKNSEFCGPLTSFDWNEAEPRRIGTSSTDTTCTIWDIEREAVDTQLIAHDKEVFDIAWGGVGVFASVSADGSVRVFDLRDKEHSTIIYESSEPDTPLVRLGWNKQDPRYMATIIMDSAKVVVLDIRFPALPVVELQRHQASVNAIAWAPHSSCHICTAGDDSQALIWDISSMGQHVEGGLDPILAYTAGAEIEQLQWSSSQPDWVAIAFSTKLQILRV”, the protein production result is “failed”.

In the case of “MGTTEKSGIKEIIIQGLTRAGKPFRPSDWVDRMCSTYASFGADRKLRYSPYLKPRVIEGVRCLAVDLKLKDTNPEGFNQLMHFATENQLNILDAEGNSIDAAQVTEI”, the protein production result is “not failed”. The same measure for “MGVANLRVMHYVHKDKAFAYWSCTCVYAPESRYCSEEHKKMALAEREYELPHNFANVHLHTNMEDLVLPKIISYLRDPQLGIIEIPNLQYIDDVFNVTPTEQPDMFSTNLDEREEFNIWLFMMIS”: “failed”.
